The RNAGym collection of RNA variant scans (doi:10.7554/elife.90254)

B1: OR4K15 (parent)
chain: GUUAACGGUCAUAGGCCAUGGAAACUAGGAGCACCAUUUCGCUGCCAGUGAAGAAAUGAACAAAGAAAAUCUGGGCCAGGCAGGCAUCAAAAGAAAUAGUCUUGCGCUCAACCAGAAAGUCUGUAAUCAUUUUAAGGGUA

Variants of: B1
Assay: self-cleavage, relative activity (ratio to wild type); higher = more cleavage; in vitro, sequencing; the parent is a self-cleaving ribozyme

Variant	self-cleavage
U26A A54G	1.95
A11G U130C	0.53
A36U A59G	1.26
A90G A96G	1.25
A30G U132C	1.36
A51G A62C	1.58
U87C A116U	0.17
G50C	1.54
G50U	1.11
U133C A135U	1.71
A67U U120C	1.13
A69G U124A	0.53
G74U A111G	0.04
A36G U37G	1.45
A18U U100C	2.18
A98G U130C	0.41
U19C U124C	0.87
G75A A78U	0.09
A116G A118G	0.22
C45U A86U	1.17
U57C A92G	0.71
C34U A90G	0.74
A111G U139G	0.02
G7A A27G	1.3

Variant	self-cleavage
U9A C88U	0.82
A62G A78C	0.37
G15A A27G	1.23
A62G U133C	1.14
A18G A62G	1.54
A18G A118G	1.34
A54U U139A	1.63
C34U A68G	1.8
A5C A66G	2.49
U120A A135G	1.1
A13G C34G	0.83
A4G U124A	0.48
G29A A117G	1.77
A24U U100C	2.08
A63U U70C	1.68
U87C A95C	0.32
A11G C112A	0.02
G20U A47G	1.08
A5C A18G	1.02
U122G A129U	1.75
U39C A110U	1.06
A27G A114G	0.27
A36U A91C	1.76
C32U U70C	0.69

Variant	self-cleavage
A95G U102A	2.24
A18G A67U	1.79
C85A U100C	0.72
G15A A114G	0.06
A60G A95C	1
A67U A91G	1.91
A33G G106A	0.04
A86G U97A	0.97
A59U A64G	1.4
A54G A135U	0.73
A55U U87C	1.64
A13U A94G	0.55
G44A U102A	1.56
A24G A36C	1.51
G41A A126G	1.48
A33C A66U	1.52
A13G A116U	0.41
A54G A56G	1.01
C76U A118G	0.1
A92G U127A	2.33
U9A U43A	0.83
A94C A116C	0.25
U49A U122A	1.32
U43C A56G	1.18

Variant	self-cleavage
C45A	1.6
A56G G74U	0.14
U39C A140G	1.57
A86U U108C	0.02
U39G A89G	1.18
A11U A18G	1.38
U9C U130C	1.05
G8A A92G	1.56
U87C C109U	0.43
G28U A47G	2.28
A5U A66G	1.27
A125G U132C	0.52
U3G U37C	1.52
A18U A60G	0.68
A60G U132C	1.07
U26C A51U	1.69
A36G A134U	1.6
U26C A116G	1.14
U2C U12C	0.74
A117G U122C	1.05
A52U G79A	0.37
G31A A78G	0.27
A30G U133C	1.8
A24G A96G	1.2

Variant	self-cleavage
A78U A82U	0.15
C16U A94G	0.94
A60G U120A	1.93
A22G U127A	2.2
U9C	1.61
A64G U100C	1.22
A24G G84C	0.53
C40U A114G	0.5
C109A	0.38
C35U A134G	1.23
A54G A69C	1.39
G7A A140U	1.62
A67G U97A	1.71
A68G U70C	0.51
U26G A63G	2.09
A47G G138A	1.31
A33C U132C	1.46
U12A U102A	1.08
A23G A91C	1.49
A23G A91G	0.7
A60C C71U	0.04
U3C A98U	2.88
A78G A91U	0.22
A78G A91G	0.13

Variant	self-cleavage
A13G G80C	0.19
A33G U103A	0.46
A95G C105A	0.09
A90G A140U	0.74
A33U A140G	2.18
A64G A91C	1.76
U130C A140G	1
U127C U133A	1.7
G93A A95G	2.26
G83U U122A	0.15
G44A U97C	0.83
A95G U122C	1.2
U120A U133A	1.81
G79U A129G	0.04
A67G A125U	0.11
U49A A86G	1.19
U49C U97A	2.12
A51G G84A	1.78
U72C A78G	0.25
U2C G48U	0.43
C32U A60G	1.38
U19C A114G	0.39
A11G A96C	0.82
A13G G137U	1.06

Variant	self-cleavage
A60G C113U	0.09
A18C A62G	1.36
G20U U39A	1.57
G74A A118G	0.14
G48A A64U	1.63
A36G A98C	2.03
U19A A78G	0.31
A23G A134G	0.76
A51U C76U	0.33
U108A A140C	0.04
C45G U102C	1.48
A23U A86U	1.32
G8A U57A	2.18
A18U U39G	0.98
U102A U120A	1.01
A47U U49C	0.36
A33G A90G	0.46
A98G C109A	0.03
U70A A90G	1.12
U37C A66C	1.34
A18G A110G	0.21
G7A A116U	0.33
U9C A11U	1.67
